Assay results from paper PMC11051896.

Tested on: T1, CcpA (Lactococcus lactis N8), ORF:ea67f8fe
T1 sequence: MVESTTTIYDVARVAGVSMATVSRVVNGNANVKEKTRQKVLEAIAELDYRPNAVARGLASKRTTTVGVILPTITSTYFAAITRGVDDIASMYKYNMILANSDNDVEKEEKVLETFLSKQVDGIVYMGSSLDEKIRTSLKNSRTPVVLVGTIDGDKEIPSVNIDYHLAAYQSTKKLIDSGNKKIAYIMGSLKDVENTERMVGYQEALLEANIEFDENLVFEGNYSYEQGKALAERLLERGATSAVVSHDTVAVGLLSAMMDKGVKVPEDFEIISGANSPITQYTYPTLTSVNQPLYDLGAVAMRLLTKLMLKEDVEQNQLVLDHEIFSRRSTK
Test: MST
Conditions: MST: Cy5-DNA 375 nM stock (10 uL per tube), CcpA from 15 uM in 16 two-fold dilutions; assay buffer, salt, pH and temperature not stated (protein purified in …)

| Sequence | Kd [nM] | binding |
| --- | --- | --- |
| AGCCAGTGGCGATAAGTACGATAAAATATTTAAAAGTCTATATATACCAAGGAAGAAAACGCTTTAAATTTTTGTAAATTATTAGAAATAATGATAG (double strand) [N8-1-cre] | 44 |  |
| AGCCAGTGGCGATAAGTACGATAAAATATTTAAAAGTCTATATATACCAAGGAAGAAAACTCTTTAAATTTTTGTAAATTATTAGAAATAATGATAG (double strand) [N8-2-cre] |  | no binding |
